Experimental findings from paper doi:10.1101/2022.02.05.479199 are described below.

For experiment [1], the target named is RPA-DBD-D^MB543 (S. cerevisiae) (UniProt P22336). The experiment in a line: C-trap optical tweezers with confocal fluorescence.
The target of experiment [2] is RPA-DBD-A^Cy3 (S. cerevisiae) (UniProt P22336). Description: FRET or BRET.
The target of experiment [3] is RPA-DBD-D^Cy3 (S. cerevisiae) (UniProt P22336). Description: FRET or BRET. (In general: In BRET a luciferase serves as donor, and the signal depends on an acceptor being close.)
Experiment [4] deals with F-A-B-DBD-A^MB543 (S. cerevisiae). The experiment in a line: other fluorescence titration.
The target of experiment [5] is RPA-DBD-A^MB543 (S. cerevisiae) (UniProt P22336). Description: other fluorescence titration.

Changes are numbered by the printed parent chain.

B1: Rtt105^Cy5 (natural protein)
chain: MYSNHNLNSDDCSFDWNEEKAAELQRTGVSFDRSLTPQSLRTSTRRLSEENKQQSGTMHIDTSPSVVSDIISSRRDRSQDFFGPHSSSPIAPSERQRADQRSRLESMRLTRRRDKMTKVRGGLEKMEEMIMQGEHLREMQRLKQEAQKNALPSDMAEYMEWQNNEDLEDDELLAFIEKQETYKNELEHFLNNANKNVYENNSYPNSHT
modifications: Cy5 (maleimide) on Cys-12
As for B1, the t1/2 of dissociation in experiment [1] was 5 s. In experiment [2], this molecule gave a kobs (single exponential model) of 0.62 s⁻¹ and a kobs (single-step model) of 0.2 s⁻¹. In experiment [3], this molecule came in with a kobs,1 (two-step model) of 3.5 s⁻¹ and a kobs,2 (two-step model) of 0.2 s⁻¹.

B2: Regulator of Ty1 Transposition 105 (Rtt105) (natural protein)
chain: B1 chain with S13C
In the case of B2, the Kd (as a rule, the equilibrium constant for the complex coming apart) in experiment [4] was 33.9 nM; in experiment [5] it was 61.1 nM.
